We go through 18 molecules from paper PMC6908968 (Cell, 2019).

Assay [1] concerns the target T1, thermolysin-cleaved EBOV GP on Jurkat-GP cells (cleaved GP) (Zaire ebolavirus, Makona (GP1 core …, strain)).
T1 chain 1: not shown
T1 chain 2: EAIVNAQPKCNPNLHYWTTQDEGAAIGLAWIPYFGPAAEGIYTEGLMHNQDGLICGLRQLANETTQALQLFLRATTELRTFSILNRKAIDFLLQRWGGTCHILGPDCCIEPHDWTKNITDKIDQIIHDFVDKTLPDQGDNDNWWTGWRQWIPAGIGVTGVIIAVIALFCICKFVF

Assay [2] has as its target EBOV GP ectodomain residues 1-636 (GPec) (Zaire ebolavirus, strain  …, UniProt Q05320).

B1: 5.6.c3479 (antibody, V domains shown)
VH: QVHLVESGGGLVKPGGSLRLSCSVSGFAFSDYYMTWIRQAPGKGLEWVSYISGDGGSIYYADSVKGRFTISRDNAKKSLYLQLNSLRADDTAVYYCARDRCDRDQLLCYYYYGMDVWGQGTTVTVSS
VL: QSVLTQPPSVSAAPGQKVTISCSGSSSNIGNNYVSWYQQLPGTAPKLLIYDNNKRPSGIPDRFSGSKSGTSATLDITGLQTGDEADYYCGTWDNSLIAGVFGGGTKLTVL
In the case of B1, the binding result in assay [1] and in assay [2] was “binds” throughout.

B2: 5.6.c3360 (antibody, V domains shown)
VH: EVQVVESGGGLVKPGGSLRLSCAASGFSFSIYSMNWVRQAPGKGLEWVSSITGSSSYTNYAGSVKGRFTISRDNAKNSLYLQMNSLRADDTAVYYCARDGAVDTDIYYYGMDVWGQGTTVTVSS
VL: DIQMTQSPSFVSASIGDRVTITCRASQDISSWLAWYQQKPGKAPTLLIYATSTLQSGVPSRFSGSGSGTDFTLTISSLQPEDFATYYCLQAHSFPRTFGQGTQLEIK
On to B2, for which the binding result in assay [1] and in assay [2] was “binds” throughout.

B3: 5.6.c3225 (antibody, V domains shown)
VH: EVQLVESGGGLVKPGGSLRLSCAASGFTFSSYTMNWVRQAPGKGLEWVSFISSTSRYIHYADSVKGRFTISRDNAKNSLFLQINSLRDEDTAVYFCARESVDDTSMLYYGLDVWGQGTTVTVSS
VL: DIQMTQSPSSLSASVGGRVTITCRASQSISSSLSWYQQKPGKAPKFLIYGASTLESGVPSRFSGSGSGTDFTLTISSLQPEDFATYFCQQSHSLPWTFGQGTKVEIK
Turning to B3, the binding result in assay [1] and in assay [2] was “binds” each time.

B4: 5.6.c4395 (antibody, V domains shown)
VH: EVQLVESGGGLVQPGGSLRLSCAASGFTFSTYEMNWVRQAPGKGLEWIAFIDDGGSTINYADSVKGRFTVSRDNAKNSLYLQMNSLRADDTAIYYCARVMTTSFYYYGVDVWGQGTTVTVSS
VL: DIQMTQSPSIVSASVGDRVTITCRASQGVSYWLAWYQQKPGKAPKLLIYAASSLQSGVPSRFSGSGSGTDFTLTISSLQPEDFATYYCQQAHSFPWTFGQGTKVEMK
Take B4: the binding result in assay [1] and in assay [2] was “binds” each time.

B5: 5.6.c3557 (antibody, V domains shown)
VH: QVQLVESGGGVVQPGRSLRLSCAASGFSITNYAMHWVRQAPGRGLEWVALISYDGINQYYADSVKGRFTFSRDNSKNTLYLQMNSLRLDDTAVYYCARDPASPSDIFQDAFDIWGQGTTVIVSS
VL: DIQMTQSPSSLSASVGDRVTITCRASQDISGWLAWYQQKPEKAPRSLIYATSSLQSGVPSRFSGSGSGTDFTLTISSLQPEDFATYYCQQYHSYPLTFGGGTKIQIK
Regarding B5, the binding result in assay [1] and in assay [2] was “binds” in each case.

B6: 5.6.c4392 (antibody, V domains shown)
VH: QVQLVESGGGVVQPGRSLRLSCAASGFFFRNYGIHWVRQAPGKGLEWVAIISYDESKKYYADSVKGRFTISRDNSKNTLYLQMNSLRAEDTAVYYCAKAHPHSRWFFDSWGQGTLVTVSS
VL: NFVLTQPHSVSDSPGKTVTISCTRSSGSIATDYVQWYQQRPGSAPTLVIYEDNQRPSGVPNRFSGSIDSSSNSASLTISGLETEDEADYYCQSYDPTNLVFGGGTKLTVL
Consider B6, for which the binding result in assay [1] and in assay [2] was “binds” in each case.

B7: 5.6.c3250 (antibody, V domains shown)
VH: QVQLVESGGGLVKPGGSLRLSCAASGFTFSDYDMSWIRQAPGKGLEWISYISSSGTTIYDADSVKGRFTISRDNAKNSLSLQVNSLRAEDTAVYYCARNVEQIVGATLDYWGQGTLVTVSS
VL: EIVLTQSPATLSLSPGERATLSCRASQSISSFLAWYQQKLGQAPRLLIFDASNRATGIPARFSGSGSGTDFTLTISSLEPEDFAVYYCHHWTFGQGTKVEIK
In the case of B7, the binding result in assay [1] and in assay [2] was “binds” throughout.

B8: 5.6.c3412 (antibody, V domains shown)
VH: QIQLVESGGGVVQPVRSLRLTCAASGFTFSQYGMHWVRQAPGKGLEWVAVISYDGTQKYYSDSVKGRFTISRDNAKNTLSLQMNGLRAEDTAVYYCAKGFLERNFDLWSGSYSDSGWRGPYYGMDFWGQGTTVIVSS
VL: QTVVTQEPSFSVSPGGTVTITCALSSGSVSASLYPSWYQQTPGQAPRTLIYSTNTRSSGVPDRFSGSILGNKAALTITGAQADDESDYYCVLFMSSGIYVFGTGTKVTVL
In the case of B8, the binding result in assay [1] and in assay [2] was “binds” each time.

B9: 5.6.c3835 (antibody, V domains shown)
VH: QIQLVQSGAEVKKPGASVKVSCRASGYTFASSGISWVRQAPGQGLEWMGWINVYNGDTNSAHKLQGRVTMTTDTSTSTAYMELRSLRSDDTAVYYCTRDSFCAGSNSCYLWAGYYYYAMDVWGQGTTVTVSP
VL: EIVMTQSPATLSVSPGERATLSCRASQSLSSNLAWYQQKPGQAPRLLIYRASTRATGVPARFSGSGSGTEFTLIISNLQSEDFAVYYCQQFQNWPRTFGQGTKVEIK
With B9, the binding result in assay [1] and in assay [2] was “binds” throughout.

B10: 5.6.c3362 (antibody, V domains shown)
VH: QLQLQQSGPGLVKPSETLSLTCNVSGGSISSSSTYSWGWIRQPPGKGLEWIGNIYYSGSTYYNPSLKSRVTISVDTSKNQFSLKLSSVTAADTAVYYCARSFRGPTGAFYYYSYAMDVWGRGTTVTVSS
VL: SSELTQDPAVSVALGQTVRITCQGDSLRTYYASWYQQKPGQAPVLVIYGKKNRPSGIPDRFSGSSSGNTASLTITGAQAEDEADYYCNSQDSSGDLVLFGGGTKVTAL
Regarding B10, the binding result in assay [1] and in assay [2] was “binds” in each case.

B11: 5.6.c3236 (antibody, V domains shown)
VH: QVQLLESGPGLVKPSETLSLTCAVSGGSVSSNTHFWSWIRQPPGKGLEWIGYTLSSGSTAYNPSLKSRVSLSVDTSKNHFSLKLTSVTAADTAVYYCAGTVIQGVVSFDWFDPWGQGTLVTVSS
VL: DIQMTQSPSSLSASVGDRVTITCRASQSINSYLNWYQQRPGKAPKLLIYTTSNLQSGVPSRFSGSGSGTDFTLTISSLQPEDFATYYCQQSYSTPLTFGGGTKVEIK
In the case of B11, the binding result in assay [1] and in assay [2] was “binds” throughout.

B12: 5.6.c3507 (antibody, V domains shown)
VH: EVQLVESGGGVVQPGGSLRLSCAASGFTFDDYGMHWVRQAPGKGLEWVSFISGDGYSTYYGDSVKGRFTISRDKSKNSLYLQMNSLRTEDTAFYYCAKDGGSTLTTLLYNWFDSWGQGTLVTVSS
VL: DIQMTQSPSSLSASVGDRVTITCRASQSINMYLNWYQQKPGKAPKVLIYGASSLQSGVPSRFSGSGSGTDFTLTISSLQPEDFATYYCQQSYSIPVTFGPGTKVDIK
For B12, the binding result in assay [1] and in assay [2] was “binds” throughout.

B13: 5.6.c3397 (antibody, V domains shown)
VH: QVQLQESGPGLVKPSETLSLTCTVSGGSISTYYWSWIRQTPGKGLECIGYINYFGSTNYNPSLKSRVTISIDTSKNQFSLKLSSVTAADTAVYYCARHYGVGTYSGGWFDPWGQGTLVTVSS
VL: DIQMTQSPSSLSASVGDRVTVTCRASQRINSFLNWYQQKPGKAPKLLIYAASSLQSGVPSRFSGTGSGTDFTLTISSLQPEDFATYYCQQSYSSPRTFGQGTKVEIR
For B13, the binding result in assay [1] and in assay [2] was “binds” each time.

B14: 5.6.c3508 (antibody, V domains shown)
VH: QVQLEQSGAEVKKPGASVKVSCQAAGYTFTSYGISWVRQAPGQGLEWMGWISADNGNTKYAQNLQARVTMTTDTSTSTAYMEVRRLRSDDTAVYYCARDSGDLSSLLYYGMDVWGQGTTVTVSS
VL: DIQLTQSPSFLSASVGDRVTITCRASQGISSYLAWYQQKPGKAPKLLIDAASTLQSGVPSRISGSRSGTEYTLTISSLQPEDFATYYCQQLNNFPFTFGPGTKVDIK
For the molecule B14, the binding result in assay [1] and in assay [2] was “binds” in each case.

B15: 5.6.c3295 (antibody, V domains shown)
VH: EVQLVESGGDLVQPGGSLRLSCAASGFTVNANYLGWVRQTPGKGLEWVSLIYSGSGSTYYADSVKGRFTLSRDSSKNTLFLHMNSLRPEDTAVYYCARAGGCGGDCYSYYFDYWGRGTLVTVSS
VL: DIQMTQSPSTLSASVGDRVTITCRASQSISRWLAWYQQKPGKAPKLLIYRASSLQNGVPSRFSGSGSGTEFTLTISGLQPDDFGIYYCQEYSSRYTFGQGTQLEIK
With B15, the binding result in assay [1] and in assay [2] was “binds” in each case.

B16: 5.6.c4013 (antibody, V domains shown)
VH: EVQLVESGGDLVQPGGSLRLSCAASGFTVNANYLGWVRQTPGKGLEWVSLIYSGSGSTYYADSVKGRFTLSRDSSKNTLFLHMNSLRPEDTAVYYCARAGGVVVTAIRTTFDYWGRGTLVTVSS
VL: DIQMTQSPSTLSASVGDRVTITCRASQSISRWLAWYQQKPGKAPKLLIYRASSLQNGVPSRFSGSGSGTEFTLTISGLQPDDFGIYYCQEYSSRYTFGQGTQLEIK
Take B16: the binding result in assay [1] and in assay [2] was “binds” each time.

B17: 5.6.c3567 (antibody, V domains shown)
VH: EVQLVESGGVVVQPGGSLRLSCAASGFTFDDYTMHWVRQVPGKGPEWVSLITWDGAHTYYADSVKGRFTISRDNSKNSLYLQMNSLRTEDTALYFCARDTAGGAFWSGYPDYWGQGTLVTVSS
VL: DIQMTQSPSSLSASVGDRVTITCRASQSISSYLIWYQQKPGKVPKVLIYGASSLQSGVPSRFSGSGSGTDFTLTISSLQPEDFATYYCQQSHSIPYTFGQGTKLEIK
With B17, the binding result in assay [1] and in assay [2] was “binds” in each case.

B18: 5.6.c4011 (antibody, V domains shown)
VH: QVQLQESGPGVVKPSETLSLTCTVSGASMTGYYWSWIRQPPGKGLEWIGYIFYSGSTNYNPSLKSRATISVDTSKKQFSLKLSSVTAADTAVYYCARSVVVIENDAFDIWGQGTMVTVSS
VL: DIQMTQSPSSLSASVGDRVTITCRASQSTTSYLNWYQQKPGKAPKLLIFAASTLQSGVPSRFSGSGSGTDFTLTISSLQPEDFATYYCQQSYSAPYTFGQGTKLEIK
For B18, the binding result in assay [1] and in assay [2] was “binds” throughout.
